US20240026032A1 (Alexion, published 2024)

Assays:
[1] = target: T1, Programmed Death 1 (PD-1) Fc chimera (R&D Systems, Catalog # 1086-PD-050) (human, UniProt Q15116 25-167); assay: BLI (Octet), PD-1 Fc captured on anti-human Fc tips, TPP-999 at 10 µg/mL in PBS as analyte
T1 construct: Bought reagent; not shown: Fc part of the bought chimera (captured by anti-human Fc tips)
Method: (§1) Final dissociation in PBS was performed in the last step on the Bio-Layer Interferometry (BLI) data.

[2] = target: T1, Programmed Death 1 (PD-1) Fc chimera …; assay: BLI (Octet), PD-1 Fc captured on anti-human Fc tips, TPP-1001 at 10 µg/mL in PBS as analyte
Method: as §1

[3] = target: T1, Programmed Death 1 (PD-1) Fc chimera …; assay: BLI (Octet), PD-1 Fc captured on anti-human Fc tips, TPP-993 in PBS as analyte
Method: as §1

[4] = target: T1, Programmed Death 1 (PD-1) Fc chimera …; assay: BLI (Octet Red), TPP-985 loaded on anti-human IgG Fc tips, DLAT 10 µg/mL bound first, then PD-1 Fc
Method: (§2) Antibodies and antibody fusions were diluted to 16 μg/mL in PBS and loaded onto anti-human IgG Fc tips (ForteBio, Catalog # 18-5064). Human DLAT recombinant protein (ProSpec, Catalog # ENZ-082) was diluted into PBS to 10 μg/mL. […] Finally, a dissociation step in PBS was performed to determine dissociation from the bound antibodies.

[5] = target: T1, Programmed Death 1 (PD-1) Fc chimera …; assay: BLI (Octet Red), TPP-990 loaded on anti-human IgG Fc tips, DLAT 10 µg/mL bound first, then PD-1 Fc
Method: as §2

[6] = target: T1, Programmed Death 1 (PD-1) Fc chimera …; assay: BLI, PD-1 Fc loaded on anti-human IgG tips, fusion as analyte, dissociation in PBS

T1 sequence (Q15116 25-167, change not shown): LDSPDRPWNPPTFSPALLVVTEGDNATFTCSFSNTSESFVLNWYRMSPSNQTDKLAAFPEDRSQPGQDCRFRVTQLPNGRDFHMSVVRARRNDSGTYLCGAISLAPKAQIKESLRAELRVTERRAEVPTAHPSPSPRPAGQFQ

B1: TPP-999 (PD2 with PD-L1 fused to the C-terminus of the light chain) (Fab)
heavy: EVQLVESGGGLVKPGGSLRLSCAASGFTFGSYSMTWVRQAPGKGLEWVSFISTVSTYIYYPDSVKGRFTISRDNAKNSLYLQMNSLRAEDTAVYYCARVSGRGSAARDGEKGTYYYYMDVWGKGTTVTVSSASTKGPSVFPLAPSSKSTSGGTAALGCLVKDYFPEPVTVSWNSGALTSGVHTFPAVLQSSGLYSLSSVVTVPSSSLGTQTYICNVNHKPSNTKVDKRVEPKSC
light: SSELTQDPAVSVALGQTVTITCQGDSLRSYYASWYQQKPGQAPVLVIFGKNNRPSGIPDRFSGSRSGNTASLTITGAQAEDEADYFCDSRDSSANHWVFGGGTKLTVLQPKAAPSVTLFPPSSEELQANKATLVCLISDFYPGAVTVAWKADSSPVKAGVETTTPSKQSNNKYAASSYLSLTPEQWKSHKSYSCQVTHEGSTVEKTVAPTECSGGSSRSSSSGGGGSGGGGFTVTVPKDLYVVEYGSNMTIECKFPVEKQLDLAALIVYWEMEDKNIIQFVHGEEDLKVQHSSYRQRARLLKDQLSLGNAALQITDVKLQDAGVYRCMISYGGADYKRITVKVNA
notes: Fab fusion with the human PD-L1 variable-like domain
binding result [1]: binds

B2: TPP-1001 (PD2 with PD-L1 fused to the N-terminus of the light chain) (Fab)
heavy: EVQLVESGGGLVKPGGSLRLSCAASGFTFGSYSMTWVRQAPGKGLEWVSFISTVSTYIYYPDSVKGRFTISRDNAKNSLYLQMNSLRAEDTAVYYCARVSGRGSAARDGEKGTYYYYMDVWGKGTTVTVSSASTKGPSVFPLAPSSKSTSGGTAALGCLVKDYFPEPVTVSWNSGALTSGVHTFPAVLQSSGLYSLSSVVTVPSSSLGTQTYICNVNHKPSNTKVDKRVEPKSC
light: FTVTVPKDLYVVEYGSNMTIECKFPVEKQLDLAALIVYWEMEDKNIIQFVHGEEDLKVQHSSYRQRARLLKDQLSLGNAALQITDVKLQDAGVYRCMISYGGADYKRITVKVNAGGSSRSSSSGGGGSGGGGSSELTQDPAVSVALGQTVTITCQGDSLRSYYASWYQQKPGQAPVLVIFGKNNRPSGIPDRFSGSRSGNTASLTITGAQAEDEADYFCDSRDSSANHWVFGGGTKLTVLQPKAAPSVTLFPPSSEELQANKATLVCLISDFYPGAVTVAWKADSSPVKAGVETTTPSKQSNNKYAASSYLSLTPEQWKSHKSYSCQVTHEGSTVEKTVAPTECS
notes: as for B1
binding result [2]: binds

B3: TPP-993 (PD2 Fab having no PD-L1 domain and no linker) (Fab)
heavy: EVQLVESGGGLVKPGGSLRLSCAASGFTFGSYSMTWVRQAPGKGLEWVSFISTVSTYIYYPDSVKGRFTISRDNAKNSLYLQMNSLRAEDTAVYYCARVSGRGSAARDGEKGTYYYYMDVWGKGTTVTVSSASTKGPSVFPLAPSSKSTSGGTAALGCLVKDYFPEPVTVSWNSGALTSGVHTFPAVLQSSGLYSLSSVVTVPSSSLGTQTYICNVNHKPSNTKVDKRVEPKSC
light: SSELTQDPAVSVALGQTVTITCQGDSLRSYYASWYQQKPGQAPVLVIFGKNNRPSGIPDRFSGSRSGNTASLTITGAQAEDEADYFCDSRDSSANHWVFGGGTKLTVLQPKAAPSVTLFPPSSEELQANKATLVCLISDFYPGAVTVAWKADSSPVKAGVETTTPSKQSNNKYAASSYLSLTPEQWKSHKSYSCQVTHEGSTVEKTVAPTECS
binding result [3]: no binding (tested: 10 µg/mL)

B4: TPP-985, human IgG2/4 PD5 antibody (antibody)
heavy: QLQLQESGPGLVKPSETLSLTCIVSGGSISRNSYYWGWIRQPPGKGLEWIGSIVYSGSTYHQPSLKSRVTIFLDTSKNQFFLKLTSVTAADTAVYYCARGTRATTWPPPIGYWGQGTLVTVSSASTKGPSVFPLAPCSRSTSESTAALGCLVKDYFPEPVTVSWNSGALTSGVHTFPAVLQSSGLYSLSSVVTVPSSNFGTQTYTCNVDHKPSNTKVDKTVERKCCVECPPCPAPPVAGPSVFLFPPKPKDTLMISRTPEVTCVVVDVSQEDPEVQFNWYVDGVEVHNAKTKPREEQFNSTYRVVSVLTVLHQDWLNGKEYKCKVSNKGLPSSIEKTISKAKGQPREPQVYTLPPSQEEMTKNQVSLTCLVKGFYPSDIAVEWESNGQPENNYKTTPPVLDSDGSFFLYSRLTVDKSRWQEGNVFSCSVMHEALHNHYTQKSLSLSLGK
light: QSVLTQPPSVSAAPGQKVTVSCFGSSSNIGNYFASWYQQLPGAAPRLLIYGNNERPSGIPDRFSGSKSGTSATLVITGLQTGDEAAYYCATWDSSLSAVVFGGGTKLTVLGQPKANPTVTLFPPSSEELQANKATLVCLISDFYPGAVTVAWKADGSPVKAGVETTKPSKQSNNKYAASSYLSLTPEQWKSHRSYSCQVTHEGSTVEKTVAPTECS
notes: also called PD5_IgG2-4; anti-DLAT IgG2-4 antibody with no PD-L1 variable-like domain
binding result [4]: no binding (tested: 12.5 µg/mL)

B5: TPP-990, human IgG2/4 PD5 antibody, C-terminus PD-L1 LC (antibody)
heavy: QLQLQESGPGLVKPSETLSLTCIVSGGSISRNSYYWGWIRQPPGKGLEWIGSIVYSGSTYHQPSLKSRVTIFLDTSKNQFFLKLTSVTAADTAVYYCARGTRATTWPPPIGYWGQGTLVTVSSASTKGPSVFPLAPCSRSTSESTAALGCLVKDYFPEPVTVSWNSGALTSGVHTFPAVLQSSGLYSLSSVVTVPSSNFGTQTYTCNVDHKPSNTKVDKTVERKCCVECPPCPAPPVAGPSVFLFPPKPKDTLMISRTPEVTCVVVDVSQEDPEVQFNWYVDGVEVHNAKTKPREEQFNSTYRVVSVLTVLHQDWLNGKEYKCKVSNKGLPSSIEKTISKAKGQPREPQVYTLPPSQEEMTKNQVSLTCLVKGFYPSDIAVEWESNGQPENNYKTTPPVLDSDGSFFLYSRLTVDKSRWQEGNVFSCSVMHEALHNHYTQKSLSLSLGK
light: QSVLTQPPSVSAAPGQKVTVSCFGSSSNIGNYFASWYQQLPGAAPRLLIYGNNERPSGIPDRFSGSKSGTSATLVITGLQTGDEAAYYCATWDSSLSAVVFGGGTKLTVLGQPKANPTVTLFPPSSEELQANKATLVCLISDFYPGAVTVAWKADGSPVKAGVETTKPSKQSNNKYAASSYLSLTPEQWKSHRSYSCQVTHEGSTVEKTVAPTECSGGSSRSSSSGGGGSGGGGFTVTVPKDLYVVEYGSNMTIECKFPVEKQLDLAALIVYWEMEDKNIIQFVHGEEDLKVQHSSYRQRARLLKDQLSLGNAALQITDVKLQDAGVYRCMISYGGADYKRITVKVNA
notes: Antibody fused with the human PD-L1 variable-like domain
binding result [5]: no binding (tested: 12.5 µg/mL)

B6: TPP-1986 (murine IgG1 Fc Silent, N-terminus_PDL1_LC_PD5) (antibody)
heavy: QLQLQESGPGLVKPSETLSLTCIVSGGSISRNSYYWGWIRQPPGKGLEWIGSIVYSGSTYHQPSLKSRVTIFLDTSKNQFFLKLTSVTAADTAVYYCARGTRATTWPPPIGYWGQGTLVTVSSAKTTPPSVYPLAPGSAAQTNSMVTLGCLVKGYFPEPVTVTWNSGSLSSGVHTFPAVLQSDLYTLSSSVTVPSSTWPSQTVTCNVAHPASSTKVDKKIVPRDCGCKPCICTVPEQSSVFIFPPKPKDVLMISLTPKVTCVVVDISKDDPEVQFSWFVDDVEVHTAQTKPREEQINSTFRSVSELPILHQDWLNGKEFKCRVNSAAFPAPIEKTISKTKGRPKAPQVYTIPPPKEQMAKDKVSLTCMITNFFPEDITVEWQWNGQPAENYKNTQPIMDTDGSYFVYSKLNVQKSNWEAGNTFTCSVLHEGLHNHHTEKSLSHSPGK
light: FTVTVPKDLYVVEYGSNMTIECKFPVEKQLDLAALIVYWEMEDKNIIQFVHGEEDLKVQHSSYRQRARLLKDQLSLGNAALQITDVKLQDAGVYRCMISYGGADYKRITVKVNAGGSSRSSSSGGGGSGGGGQSVLTQPPSVSAAPGQKVTVSCFGSSSNIGNYFASWYQQLPGAAPRLLIYGNNERPSGIPDRFSGSKSGTSATLVITGLQTGDEAAYYCATWDSSLSAVVFGGGTKLTVLGQPKSSPSVTLFPPSSEELETNKATLVCTITDFYPGVVTVDWKVDGTPVTQGMETTQPSKQSNNKYMASSYLTLTARAWERHSSYSCQVTHEGHTVEKSLSRADCS
notes: also called huPDL1; Human PDL1_Mouse PD5
binding result [6]: binds
